Data reported in patent publication US8835136B2, “Engineered amine dehydrogenases and methods of use thereof” (Georgia Tech Research Corporation, priority 2012, dated 2014).
Residue numbers refer to the chain shown, from its start. Numbers in names are those of the source. ≈ marks a conversion by molar mass, not a printed value.

Assays:
[1] = Solubility of PFPA substrate; assay type: physicochemical
Description: The enzyme tolerates acetone concentrations as high as 20% v/v. The PFPA substrate has a limited solubility of 40 mM in aqueous media, but was increased to 60 mM with the addition of acetone.

[2] = Reductive amination, spectrophotometric assay at 340 nm; assay type: biochemical; details: for Reductive amination specific activity: maximum specific activity, nonlinear fit
Description: (§1) Activity of purified proteins was measured using a spectrophotometric assay at 340 nm, corresponding to the cofactor nicotinamide adenine dinucleotide (NADH, ε340=6220 M^−1 cm^−1) (Dawson, et al., Clarendon Press, (1989). For reductive amination, reactions took place in 500 mM NH4Cl/NH4OH at pH 9.6, with 200 μM NADH and 20 mM of the ketone substrate, unless otherwise specified. For oxidative deamination, reactions took place in 0.1 M NaHCO3/Na2CO3 buffer at pH 10.0, with 1 mM NAD+ with 10 mM of the amine substrate of interest. All reactions were performed at 25° C. unless otherwise specified. Enzyme was added in 10 μL aliquots in dilute concentrations. Enzyme concentrations varied upon activity levels with the substrate present, but were dilute enough to ensure linear conversion kinetics over the analytical time period (10 min to 30 min). Specific activities were then calculated from the stoichiometric conversion of cofactor as determine by the change in absorbance at 340 nm over time.

[3] = Native leucine dehydrogenase activity; assay type: biochemical
Description: as §1

[4] = Oxidative deamination, spectrophotometric assay at 340 nm; assay type: biochemical; details: for Oxidative deamination specific activity: maximum specific activity, 1,3-DMBA
Description: as §1, with “For oxidative deamination, reactions took place in 0.1 M NaHCO3/Na2CO3 buffer at pH 10.0, with 1 mM NAD+ with 10 mM of the amine substrate of interest.” left out

[5] = Conversion with GDH cofactor recycle system (LeuDH-AmDH); assay type: biochemical; details: 10 mM MIBK
Description: Initial rate kinetic measurements are used primarily in the determination of kinetic parameters to avoid second-order effects and product inhibition. The enzyme's ability to reach complete substrate conversion cannot be determined from these initial rate experiments, and was instead evaluated by chiral GC of overnight conversion with a GDH recycle system. The GDH regenerates the expensive NADH by redox reaction of NAD+ and inexpensive glucose (FIG. 1). In 1.5 mL reactions, replicates containing 10 mM MIBK substrate was mixed with an excess of 12 mM glucose, 10 U GDH, and a catalytic amount of NADH (200 μM). Histag purified K67S/E113V/N261L/V290C LeuDH-AmDH (0.13 mg) was added to each reaction and allowed to convert for 18 hours. An additional 0.13 mg of enzyme was then added and allowed to react for 10 hours to achieve the maximum conversion. One mL aliquots of the final reaction media were adjusted to pH>13 by the addition of 100 μL of 10 N NaOH and derivatized in toluene according to the TFAA protocol.
The product amine was additionally confirmed through ^1H NMR. A 175 mL-scale amination reaction with GDH cofactor recycle was performed similar to previous conversion experiments. […] Following separation, the solvent was removed through rotovap distillation, and the purified product was analyzed by ^1H NMR. […]

[6] = Oxidative deamination, spectrophotometric assay at 340 nm; assay type: biochemical
Description: as §1, with “For oxidative deamination, reactions took place in 0.1 M NaHCO3/Na2CO3 buffer at pH 10.0, with 1 mM NAD+ with 10 mM of the amine substrate of interest.” left out
The enantioselectivity was initially estimated by measuring the deamination activity toward individual enantiomers of methylbenzylamine (MBA). […] A preference towards (R)-MBA over the corresponding (S)-enantiomer was evident in the discrepancies between the deamination activities of 0.586 U mg^−1 and 0.002 U mg^−1, respectively. These preliminary results were corroborated through direct measurement of the enantioselectivity of the MIBK amination in producing chiral 1,3-DMBA.

[7] = purified LeuDH library 10/11 hits

## CC(=O)Cc1ccc(F)cc1 [PFPA, para-fluoro phenyl acetone]
[1]; aqueous media
  solubility: 40 mM (≈ 6090 µg/mL)
[1]; aqueous media with added acetone, aqueous with cosolvent or surfactant or cyclodextrin, with the addition of acetone
  solubility: 60 mM (≈ 9130 µg/mL)

B1: WT: LeuDH from Bacillus stearothermophilus, SEQ ID NO:4 (protein, listed as Bacillus stearothermophilus)
chain: ELFQYMEKYDYEQVLFCQDKESGLKAIIVIHDTTLGPALGGTRMWMYNSEEEALEDALRLARGMTYKNAAAGLNLGGGKTVIIGDPRKDKNEAMFRAFGRFIQGLNGRYITAEDVGTTVADMDIIYQETDYVTGISPEFGSSGNPSPATAYGVYRGMKAAAKEAFGSDSLEGKVVAVQGVGNVAYHLCRHLHEEGAKLIVTDINKEAVARAVEEFGAKAVDPNDIYGVECDIFAPCALGGIINDQTIPQLKAKVIAGSADNQLKEPRHGDMIHEMGIVYAPDYVINAGGVINVADELYGYNRERAMKKIEQIYDNIEKVFAIAKRDNIPTYVAADRMAEERIETMRKARSQFLQNGHHILSRRRAR
[2]; MIBK
  activity for reductive amination: no measurable activity
  Reductive amination specific activity: n.m.^[c]
[3]
  native activity toward 1-Leu: 112 U mg^−1
[4]
  Oxidative deamination specific activity: n.m.

B2: K67S/E113V/N261L/V290C: LeuDH-AmDH quadruple variant, SEQ ID NO:10, library 11 (protein)
chain: B1 chain with M64S, K67M, E113V, N261L, V290C
[2]; 20 mM substrate
  Specific activity, acetophenone: 58.8 mU mg^−1 protein
  Specific activity, cyclohexanone: 123.4 mU mg^−1 protein
  Specific activity, ethyl pyruvate: 13.2 mU mg^−1 protein
  Specific activity, ethyl-3-oxohexanoate: 14.0 mU mg^−1 protein
  Specific activity, methyl acetoacetate: 4.5 mU mg^−1 protein
[2]; MIBK amination
  kcat: 0.46 s⁻¹
[2]; MIBK substrate, read-out: KM (reductive amination)
  Km: 15.1 mM
[2]; MIBK, non-linear Michaelis-Menten fit
  amination activity: 0.69 U mg^−1
[2]; MIBK
  Reductive amination specific activity: 0.690 U mg^−1 protein
[2]; [7]
  Amination of MIBK Vmax: 0.331 ± 0.07
[2]; purified LeuDH library 10/11 hits, read-out: Amination of MIBK KM
  Km: 18.7 ± 11.7 mM
[5]; 1.5 mL, 18 h + 10 h, chiral GC
  average substrate conversion: 92.5%
[5]; 175 mL-scale, 48 hours
  conversion: 84.7%
[4]; 20 mM substrate
  Specific activity, cyclohexylamine: 56.0 mU mg^−1 protein
[4]; 40 mM racemic, 20 mM of each enantiomer
  Specific activity, (R/S)-MBA: 784.6 mU mg^−1 protein
[4]; 1,3-DMBA substrate, read-out: KM (oxidative deamination)
  Km: 57.5 mM
[4]
  Oxidative deamination specific activity: 2.64 U mg^−1 protein
[4]; [7]
  Deamination of 1,3-DMBA Vmax: 2.350 ± 0.26
[4]; purified LeuDH library 10/11 hits, read-out: Deamination of 1,3-DMBA KM
  Km: 41.9 ± 9.7 mM
[6]
  deamination activity toward (R)-MBA: 0.586 U mg^−1
  deamination activity toward (S)-MBA: 0.002 U mg^−1
[6]; 20 mM substrate
  Specific activity, (R)-MBA: 586.3 mU mg^−1 protein
  Specific activity, (S)-MBA: 1.6 mU mg^−1 protein
